For assay [1], the target named is T1, rHuman IGF-1 sR (insulin-like growth factor-1 soluble receptor), CF (R&D Systems Cat#391-GR) (human, UniProt P08069 31-932).
T1 construct: Bought soluble receptor
The assay is described as follows: ECL multispot (MSD), antigen spotted, Fab in solution; blank spot 356.

The target in assay [2] is T2, rHuman HGF R/c-MET/Fc Chimera, CF (R&D Systems Cat#358-MT/CF) (human, UniProt P08581 25-932).
T2 construct: Bought reagent; also called HGF R/Fc
The description is as above.

Assay [3] addresses T3, rHuman P-Cadherin/Fc Chimera, CF (R&D Systems Cat#861-PC) (human, UniProt P22223 108-654).
T3 construct: Bought reagent
The description is as above.

In assay [4] the target is T4, rHuman Erythropoietin R/Fc Chimera, CF (R&D Systems Cat#963-ER) (human, UniProt P19235 25-250).
T4 construct: Bought reagent; also called EPO R; Epo R/Fc
T4 sequence (looked up): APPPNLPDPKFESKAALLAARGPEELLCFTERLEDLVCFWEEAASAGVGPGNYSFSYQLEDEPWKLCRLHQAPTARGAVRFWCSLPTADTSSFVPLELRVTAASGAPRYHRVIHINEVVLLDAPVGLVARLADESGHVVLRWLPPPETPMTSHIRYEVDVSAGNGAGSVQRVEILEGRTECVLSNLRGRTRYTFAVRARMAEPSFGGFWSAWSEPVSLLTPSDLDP
The description is as above.

In assay [5] the target is T5, rHuman ErbB2/Fc Chimera, CF (R&D Systems Cat#1129-ER) (human, UniProt P04626 23-652).
T5 construct: Bought reagent
The assay is described as above.

Assay [6] deals with T6, rHuman EGF R/Fc Chimera, CF (R&D Systems Cat#344-ER) (human, UniProt P00533 25-645).
T6 construct: Bought reagent
Described as above.

Assay [7] concerns the target T7, Recombinant Human DLL4 (R&D Systems Cat#1506-D4/CF) (human, UniProt Q9NR61 27-524).
T7 construct: Bought recombinant protein; also called delta-like protein 4; rHuman DLL4
Described as above.

In assay [8] the target is T8, rHuman Notch-1/Fc Chimera, CF (R&D Systems Cat#3647-TK) (human, UniProt P46531 19-526).
T8 construct: Bought reagent
The assay is described as above.

The target in assay [9] is T9, rHuman CD44/Fc Chimera, CF (R&D Systems Cat#3660-CD) (human, UniProt P16070 21-220).
T9 construct: Bought reagent
Described as above.

The target of assay [10] is T1, rHuman IGF-1 sR (insulin-like growth …). The assay is described as follows: ECL multispot (MSD), antigen spotted, Fab in solution; blank spot 272.
For assay [11], the target named is T2, rHuman HGF R/c-MET/Fc Chimera, CF (R&D …). The assay is described as above.
Assay [12] has as its target T3, rHuman P-Cadherin/Fc Chimera, CF (R&D …). The description is as above.
Assay [13] deals with T4, rHuman Erythropoietin R/Fc Chimera, CF …. The assay is described as above.
Assay [14] addresses T5, rHuman ErbB2/Fc Chimera, CF (R&D …). The assay is described as above.
The target of assay [15] is T6, rHuman EGF R/Fc Chimera, CF (R&D …). The assay is described as above.
The target in assay [16] is T7, Recombinant Human DLL4 (R&D Systems …). The assay is described as above.
For assay [17], the target named is T8, rHuman Notch-1/Fc Chimera, CF (R&D …). The description is as above.
Assay [18] concerns the target T9, rHuman CD44/Fc Chimera, CF (R&D Systems …). The assay is described as above.
Assay [19] addresses T1, rHuman IGF-1 sR (insulin-like growth …). The assay is described as follows: ECL multispot (MSD), antigen spotted, Fab in solution; blank spot 289.
The target in assay [20] is T2, rHuman HGF R/c-MET/Fc Chimera, CF (R&D …). The description is as above.
The target of assay [21] is T3, rHuman P-Cadherin/Fc Chimera, CF (R&D …). The description is as above.
Assay [22] deals with T4, rHuman Erythropoietin R/Fc Chimera, CF …. The assay is described as above.
Assay [23] concerns the target T5, rHuman ErbB2/Fc Chimera, CF (R&D …). Described as above.
The target in assay [24] is T6, rHuman EGF R/Fc Chimera, CF (R&D …). The description is as above.
The target in assay [25] is T7, Recombinant Human DLL4 (R&D Systems …). The description is as above.
The target of assay [26] is T8, rHuman Notch-1/Fc Chimera, CF (R&D …). The assay is described as above.
Assay [27] concerns the target T9, rHuman CD44/Fc Chimera, CF (R&D Systems …). The assay is described as above.
Assay [28] has as its target T1, rHuman IGF-1 sR (insulin-like growth …). The assay is described as follows: ECL multispot (MSD), antigen spotted, Fab in solution; blank spot 198.
Assay [29] concerns the target T2, rHuman HGF R/c-MET/Fc Chimera, CF (R&D …). Described as above.
Assay [30] concerns the target T3, rHuman P-Cadherin/Fc Chimera, CF (R&D …). Described as above.
The target in assay [31] is T4, rHuman Erythropoietin R/Fc Chimera, CF …. The description is as above.
For assay [32], the target named is T5, rHuman ErbB2/Fc Chimera, CF (R&D …). Described as above.
Assay [33] deals with T6, rHuman EGF R/Fc Chimera, CF (R&D …). The assay is described as above.
Assay [34] addresses T7, Recombinant Human DLL4 (R&D Systems …). The assay is described as above.
In assay [35] the target is T8, rHuman Notch-1/Fc Chimera, CF (R&D …). The assay is described as above.
For assay [36], the target named is T9, rHuman CD44/Fc Chimera, CF (R&D Systems …). The assay is described as above.

This passage reports ECL signal results from patent US20120316071A1 (published 2012).

T2 sequence (P08581 25-932, change not shown): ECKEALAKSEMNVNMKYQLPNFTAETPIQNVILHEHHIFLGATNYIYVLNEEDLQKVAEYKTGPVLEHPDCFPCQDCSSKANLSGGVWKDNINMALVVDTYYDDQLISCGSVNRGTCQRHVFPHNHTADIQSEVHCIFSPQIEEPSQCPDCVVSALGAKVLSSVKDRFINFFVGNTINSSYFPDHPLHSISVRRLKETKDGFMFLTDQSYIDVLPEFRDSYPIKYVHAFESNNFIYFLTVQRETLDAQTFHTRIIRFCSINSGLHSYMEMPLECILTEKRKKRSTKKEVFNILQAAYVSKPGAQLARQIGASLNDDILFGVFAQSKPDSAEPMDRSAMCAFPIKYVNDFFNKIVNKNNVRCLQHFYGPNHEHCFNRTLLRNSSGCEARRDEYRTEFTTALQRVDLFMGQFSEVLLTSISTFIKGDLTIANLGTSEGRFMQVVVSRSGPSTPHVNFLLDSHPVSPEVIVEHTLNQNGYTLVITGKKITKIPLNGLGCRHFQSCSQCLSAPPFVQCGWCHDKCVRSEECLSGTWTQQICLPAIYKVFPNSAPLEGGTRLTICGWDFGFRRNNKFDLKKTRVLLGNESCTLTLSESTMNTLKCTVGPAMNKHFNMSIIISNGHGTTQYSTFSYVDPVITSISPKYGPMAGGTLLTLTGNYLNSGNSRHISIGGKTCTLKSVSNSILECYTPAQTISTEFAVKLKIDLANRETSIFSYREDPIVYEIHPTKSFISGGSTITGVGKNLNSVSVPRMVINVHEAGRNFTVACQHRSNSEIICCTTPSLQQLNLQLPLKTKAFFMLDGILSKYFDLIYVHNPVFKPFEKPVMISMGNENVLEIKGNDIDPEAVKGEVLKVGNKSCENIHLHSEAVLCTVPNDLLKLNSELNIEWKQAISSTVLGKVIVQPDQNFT

B1: Fab VH1-46_IGHD6-6*01_IGHJ1*01 S102A/S103P/S104F/H111F (APFF) & L6_IGKJ1*01 S30A (Fab, V domains shown)
VH: QVQLVQSGAEVKKPGASVKVSCKASGYTFTSYYMHWVRQAPGQGLEWMGIINPSGGSTSYAQKFQGRVTMTRDTSTSTVYMELSSLRSEDTAVYYCAREEYAPFSAEYFQFWGQGTLVTVSS
VL: EIVLTQSPATLSLSPGERATLSCRASQSVASYLAWYQQKPGQAPRLLIYDASNRATGIPARFSGSGSGTDFTLTISSLEPEDFAVYYCQQRSNWPPWTFGQGTKVEIKR
notes: Tested as Fab made in E. coli: VH joined to CH1 from Plasmid A (His6 and Flag tags), VL joined to kappa CL from Plasmid C; also called APFF / S30A
On to B1, for which the ECL signal in assay [1] came out at 400; in assay [2], 414; in assay [3], 454; in [4] it was 561; in assay [5] it was 251; in assay [6], 322. Further, the ECL signal turned out to be 184000 in [7], 380 in [8] and 390 in assay [9].

B2: Fab VH1-46_IGHD6-6*01_IGHJ1*01 S102A/S103P/S104F/H111F (APFF) & L6_IGKJ1*01 S30G (Fab, V domains shown)
VH: QVQLVQSGAEVKKPGASVKVSCKASGYTFTSYYMHWVRQAPGQGLEWMGIINPSGGSTSYAQKFQGRVTMTRDTSTSTVYMELSSLRSEDTAVYYCAREEYAPFSAEYFQFWGQGTLVTVSS
VL: EIVLTQSPATLSLSPGERATLSCRASQSVGSYLAWYQQKPGQAPRLLIYDASNRATGIPARFSGSGSGTDFTLTISSLEPEDFAVYYCQQRSNWPPWTFGQGTKVEIKR
notes: Tested as Fab made in E. coli: VH joined to CH1 from Plasmid A (His6 and Flag tags), VL joined to kappa CL from Plasmid C; also called APFF / S30G
Consider B2, for which the ECL signal was found to be 393 in assay [10]; 355 in assay [11]; 369 in assay [12]; 485 in assay [13]; 404 in assay [14]; 387 in assay [15]. Further, the values for the ECL signal in [16], in assay [17] and in assay [18] were 180000, 382 and 427, respectively.

B3: Fab VH1-46_IGHD6-6*01_IGHJ1*01 S102A/S103P/S104F/H111F (APFF) & L6_IGKJ1*01 S30W (Fab, V domains shown)
VH: QVQLVQSGAEVKKPGASVKVSCKASGYTFTSYYMHWVRQAPGQGLEWMGIINPSGGSTSYAQKFQGRVTMTRDTSTSTVYMELSSLRSEDTAVYYCAREEYAPFSAEYFQFWGQGTLVTVSS
VL: EIVLTQSPATLSLSPGERATLSCRASQSVWSYLAWYQQKPGQAPRLLIYDASNRATGIPARFSGSGSGTDFTLTISSLEPEDFAVYYCQQRSNWPPWTFGQGTKVEIKR
notes: Tested as Fab made in E. coli: VH joined to CH1 from Plasmid A (His6 and Flag tags), VL joined to kappa CL from Plasmid C; also called APFF / S30W
Take B3: the ECL signal came out at 471 in assay [19]; 399 in assay [20]; 342 in [21]; 542 in assay [22]; 289 in assay [23]; 398 in [24]. The ECL signal in [25] worked out at 191000; in [26], 372; in assay [27] it was 500.

B4: Fab VH1-46_IGHD6-6*01_IGHJ1*01 S102A/S103P/S104F/H111F (APFF) & L6_IGKJ1*01 S30Q (Fab, V domains shown)
VH: QVQLVQSGAEVKKPGASVKVSCKASGYTFTSYYMHWVRQAPGQGLEWMGIINPSGGSTSYAQKFQGRVTMTRDTSTSTVYMELSSLRSEDTAVYYCAREEYAPFSAEYFQFWGQGTLVTVSS
VL: EIVLTQSPATLSLSPGERATLSCRASQSVQSYLAWYQQKPGQAPRLLIYDASNRATGIPARFSGSGSGTDFTLTISSLEPEDFAVYYCQQRSNWPPWTFGQGTKVEIKR
notes: Tested as Fab made in E. coli: VH joined to CH1 from Plasmid A (His6 and Flag tags), VL joined to kappa CL from Plasmid C; also called APFF / S30Q
On to B4, for which the ECL signal in assay [28] turned out to be 342; in [29], 339; in assay [30] it was 298; in assay [31], 423; in assay [32], 262; in [33], 353. Moreover, the ECL signal in assay [34] is 203000; in assay [35] it was 243; in [36], 400.
